Laboratory results from patent US20080008703A1 (YUHAN, published 2008).
Where a chain is given by its changes, count along the chain named.

B1: mouse monoclonal antibody TSK114 (antibody, V domains shown)
VH: QVQLVQSGPELKKPGETVKISCKASGYTFTHYGMNWVKQAPGEGLKWMGWINTNTGEPRYDEEFKGRFAFSLETSASTAYLQINNLRREDTATYFCARYDSRGFDCWGQGTTLTVSS
VL: QIVLTQSPAIMSASLGERVTMTCTASSSISYNYFHWYQQRPGSSPKLWIYSSSNLASGVPPRISGSGSGTSYSLTISSMEAEDAATYYCHQYERSPWTFGGGTKLEIKR
notes: Mouse monoclonal antibody (deposits KCTC 10514BP and KCTC 10515BP); also called Mouse antibody TSK114
B2: humanized antibody YHB1411 (antibody, V domains shown)
VH: QVQLVQSGPELKKPGASVKVSCKASGYTFTHYGMNWVRQAPGKGLEWMGWINTNTGEPRYDEEFKGRVTMTRDTSASTAYMELSSLRSEDTAVYYCARYDSRGFDCWGQGTTVTVSS
VL: QIVMTQSPSSLSASVGERVTITCTASSSISYNYFHWYQQKPGSAPKLWIYSSSNLASGVPSRFSGSGSGTDFTFTISSLQPEDIATYYCHQYERSPWTFGGGTKVEIKR
notes: Human heavy and kappa light constant regions come from pHAB-HC and pHAB-KC
B3: humanized antibody YHB1406 (antibody, V domains shown)
VH: B2 VH with K43Q
VL: B2 VL
notes: Human heavy chain constant region comes from vector pHAB-HC and human kappa light chain constant region from pHAB-KC
B4: humanized antibody YHB1411-2 (antibody, V domains shown)
VH: B2 VH
VL: B2 VL with Q1D
notes: Human heavy and kappa light constant regions come from pHAB-HC and pHAB-KC; also called YBB1411-2
B5: humanized antibody YHB1406-2 (antibody, V domains shown)
VH: B2 VH with V113L
VL: B2 VL with Q1D
notes: as for B2

Assays:
[1] = target: T1, recombinant human tumor necrosis factor-α (Biosource, USA) (human, UniProt P01375 77-233); experiment: cell-based or functional assay
[2] = target: T1, recombinant human tumor necrosis …; experiment: competitive ELISA (Friguet method), antibody pre-incubated with soluble hTNF-α, plate coated with hTNF-α
Procedure: For antibody quantification, 100 ng of goat anti-human immunoglobulin G.A.M (Zymed Laboratories Inc., USA) was distributed into each well of a microplate (Dynatech Laboratories Inc., USA) and the well plate was kept at 4° C. overnight to coat it with the immunoglobulin. At this time, mouse monoclonal antibody TSK114 was used as a control.
Each of the reactants was added to the well plate coated with 0.4 μg of the antigen and the well plate was kept at 37° C. for about 1.5 hrs. A goat anti-human polyclonal antibody (BioRad, USA) conjugated with horseradish peroxidase was diluted at a ratio of 1:1000 and 100 μl of the diluted antibody solution was added to each well. The well plate was kept at 37° C. for 1 hr. After the reaction was completed, the optical density of each well was measured using a horseradish peroxidase substrate kit (BioRad, USA).
Concentrations of the antibody bound to the antigen and the unbound antibody were calculated from the measured optical density, and antigen-binding affinity of the humanized antibodies were determined therefrom (Friguet B. et al., J. Immunol. Meth., 77: 305-319, 1985).

[3] = target: T1, recombinant human tumor necrosis …; experiment: SPR (Biacore2000), hTNF-α immobilized on CM5 chip, antibody 25-400 nM as analyte
Procedure: (§1) Then, association and dissociation constants of the reactions were measured by Biacore2000 (Biacore, Sweden).

[4] = target: T1, recombinant human tumor necrosis …; experiment: SPR (Biacore2000), hTNF-α immobilized
Procedure: as §1

T1 sequence (P01375 77-233 limits assumed): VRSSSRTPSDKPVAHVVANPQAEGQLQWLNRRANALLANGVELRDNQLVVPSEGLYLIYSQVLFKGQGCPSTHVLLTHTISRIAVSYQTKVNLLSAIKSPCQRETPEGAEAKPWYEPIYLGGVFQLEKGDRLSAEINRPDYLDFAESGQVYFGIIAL

Binder	IC50 (concentration of the antibodies inhibiting cell death by 50%), WHEI 164 cells, MTT [1]	Kd [2]	Kd [3]	koff [3]	kon [3]	fold higher antigen binding affinity than mouse monoclonal antibody TSK114 [4]
B1	4.7 ng/mL	0.14 nM	0.00579 nM	2.39e-07 s⁻¹	41200 M⁻¹ s⁻¹	
B2	6.7 ng/mL	0.2 nM				
B3	9.2 ng/mL	0.22 nM				
B4	5.5 ng/mL	0.2 nM	0.00171 nM	6.8e-08 s⁻¹	39600 M⁻¹ s⁻¹	~3 fold
B5	6.5 ng/mL	0.29 nM				
